{
  "source": "patent US20050191360A1",
  "about": "“Particles for inhalation having rapid release properties” (Advanced Inhalation Research, Inc., priority 2004, published 2005)",
  "origin": "cited, not measured here",
  "conditions": "rat, in vivo",
  "data": [
    {"substance": "PTH34: parathyroid hormone fragment given as dry powder formulation via intratracheal delivery (Patton et al.)", "values": [
      {"measurement": "time at which the peak PTH level was reached", "result": "about 15 minutes"}
    ]}
  ]
}
